Assay results from patent US9328143B2, “Peptide derivatives and use thereof as carriers for molecules in the form of conjugates” (VECT-HORUS, priority 2008, dated 2016).
Where no end group is shown, it is not given here. [ ]: non-standard residue; d: D form. Rhodamine = not defined here

Assays:
[1] = target: T1, hLDLR (Homo sapiens, UniProt P01130); assay: FACS: binding of bacterial viruses expressing peptides to HUVEC; set-up: endogenous in cells; host or cells: HUVEC (human umbilical vein endothelial cells), not genetically modified
T1 sequence (P01130 22-860): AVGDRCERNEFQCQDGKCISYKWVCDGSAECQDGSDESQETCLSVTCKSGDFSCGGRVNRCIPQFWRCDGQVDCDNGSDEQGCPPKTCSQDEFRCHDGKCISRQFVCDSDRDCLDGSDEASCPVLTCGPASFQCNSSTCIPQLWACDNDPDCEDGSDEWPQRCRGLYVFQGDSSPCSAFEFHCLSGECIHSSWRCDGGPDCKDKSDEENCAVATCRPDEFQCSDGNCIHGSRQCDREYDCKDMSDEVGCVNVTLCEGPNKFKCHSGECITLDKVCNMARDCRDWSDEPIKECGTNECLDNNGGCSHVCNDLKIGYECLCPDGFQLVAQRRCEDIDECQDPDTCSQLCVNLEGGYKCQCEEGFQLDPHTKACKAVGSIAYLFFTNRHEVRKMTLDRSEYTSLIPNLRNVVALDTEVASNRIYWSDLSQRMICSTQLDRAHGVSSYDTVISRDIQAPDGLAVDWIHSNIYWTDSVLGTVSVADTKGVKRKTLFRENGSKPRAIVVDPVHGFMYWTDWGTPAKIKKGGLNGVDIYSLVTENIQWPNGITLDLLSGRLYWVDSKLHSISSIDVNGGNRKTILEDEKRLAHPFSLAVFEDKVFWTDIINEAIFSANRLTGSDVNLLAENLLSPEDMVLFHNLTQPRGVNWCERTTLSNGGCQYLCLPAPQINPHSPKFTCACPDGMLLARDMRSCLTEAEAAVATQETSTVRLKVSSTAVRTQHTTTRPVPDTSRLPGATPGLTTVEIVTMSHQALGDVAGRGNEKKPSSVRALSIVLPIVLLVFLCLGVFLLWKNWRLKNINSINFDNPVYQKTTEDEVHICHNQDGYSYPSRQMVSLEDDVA
Method: Evaluation by FACS of the interaction between HUVEC and two clones of bacterial viruses expressing peptides, one cyclic (SEQ ID NO: 11), the other linear (SEQ ID NO: 21), with affinity for hLDLR, compared with control bacterial viruses not expressing peptides with affinity for this receptor.
Qualitative immunocytochemistry was supplemented with quantitative flow cytometry (FACS) with suspended cells (GFP cell line, CHO-hLDLR-GFP cell line, human fibroblasts, HUVEC). These cells were grown in culture medium, mechanically unbound and dissociated (without trypsin), centrifuged, resuspended and incubated in the presence of various bacterial virus clones and anti-LDLR antibody, for 20 min at 4° C. in order to avoid any process of endocytosis. After washings, the bacterial viruses bound to cells were visualised with anti-viral envelope protein antibody. FACS analyses were carried out with a FACSCanto system (Becton Dickinson) using BD FACSDiva software. The number of positive cells was standardised with 5,000 events for each test. The results were expressed in arbitrary units of fluorescence.
FIGS. 9, 10, 11 correspond to the results obtained for peptides SEQ ID NO: 11, SEQ ID NO: 12 and SEQ ID NO: 21 on cells of the CHO-hLDLR-GFP cell line (FIG. 9), human fibroblasts (FIG. 10) and HUVEC (FIG. 11).

[2] = target: T1, hLDLR; assay: FACS on HUVEC: competition between peptides expressed by bacterial viruses and natural ligand LDL; format: binding; set-up: endogenous in cells; host or cells: HUVEC (human umbilical vein endothelial cells), not genetically modified
Text: Evaluation by FACS on HUVEC of competition between the peptides expressed by the bacterial viruses with affinity for LDLR and its natural ligand LDL.
I—Graph representing the percentage of shift of the fluorescence signal in zone Q2 of graphs A-H obtained by FACS. […] Adding LDL leads to an 85% loss of signal in Q2 in […], indicating competition between the bacterial virus corresponding to peptide sequence SEQ ID NO: 21 and LDL at the site where LDL binds to hLDLR. The equally strong signal in Q2 of the bacterial viruses that express peptide SEQ ID NO: 11 (shift greater than 70% compared to control bacterial viruses) is only slightly shifted (17%) by adding LDL.
First, it is shown that the binding rate of bacterial viruses expressing peptides with affinity for hLDLR (SEQ ID NO: 21 and SEQ ID NO: 11 are used here as examples) is proportional to the level of LDLR expression by HUVEC. FACS experiments carried out in the presence of LDL made it possible to show and quantify a strong shift (85%) of LDL by linear peptides (for example SEQ ID NO: 21), but a small shift (17%) by cyclic peptides (for example SEQ ID NO: 11).

[3] = In situ brain perfusion in mouse, transport across the BBB; format: in vivo
Method: The in situ brain perfusion technique (in adult male OF1 mouse) is used here to select the best vectors and to provide proof of their mechanism of action for their passage in the brain across the BBB.
Radioactive peptides with high specific radioactivity (SRA, up to 100 Ci/mmol) are prepared by a strategy of acylation of the N-term amine function by tritiated propionic (or propanoic) anhydride or tritiated N-propionyl-succinimide (NPS).
The tritiation reaction of peptide vectors SEQ ID NO: 11 and SEQ ID NO: 48 in the N-term position by propionylation is carried out in DMF (1 mg peptide in 100 μl to 450 μl according to solubility) by adding 0.1 equivalent of tritiated NPS for 5 min at room temperature, then 0.9 equivalent of cold NPS (non-tritiated) for 1 h, and then a new equivalent of cold NPS for 5 h. The reaction medium is then left at 4° C. overnight and purified the following day by HPLC. The SRA for each tritiated peptide is between 5 Ci/mmol and 10 Ci/mmol (theoretically on the order of 7.7 Ci/mmol). The total quantity of radioactivity prepared by synthesis is between 600 μCi and 950 μCi.
The techniques briefly summarised below were developed to study the distribution in the brain of active substances and, in particular, the role of the BBB and, more particularly, of LDLR in the penetration of these molecules in the brain. In situ brain perfusion techniques are among the most technically demanding and the most difficult to perform in the mouse. However, in situ brain perfusion (like in vitro models) enables total control of the composition of the artificial perfusate in order to maintain the cells and vascularisation of the brain under normal physiological and anatomical conditions within the animal, without the disrupting factor of systemic distribution.
(§1) This strategy of in situ brain perfusion normally carried out in the rat was adapted for mouse (Dagenais et al., 2000, J Cereb Blood Flow Metab., 20(2), 381-6) in order to broaden its application for evaluating the parameters of transport kinetics at the BBB and the blood-retinal barrier, in transgenic and KO mutant mice for the receptors, enzymes or transporters of active substances. It involves catheterisation of a carotid artery in anaesthetised OF 1 mice and ligature of some branches of this carotid artery (external, thyroidal, occipital) in order to specifically perfuse the internal carotid and pterygopalatine arteries, which are used to evaluate the uptake in the brain of the vectors and conjugates. The catheter makes it possible to replace general circulation by infusion with a well-controlled perfusate (bicarbonate buffer, plasma or blood) by passing by the carotid. Oxygenated Krebs bicarbonate buffer is first used to evaluate the capacities of the vectors and conjugates to gain access to the brain. After catheterisation of the carotid, endogenous blood flow is stopped by sectioning the ventricles of the heart in order to avoid the mixture of buffer with blood and elevation in blood pressure. The duration of the fixed flow-rate perfusion is monitored. The buffer perfusion can be extended up to 20 min, or up to 1 h in the presence of oxygen transporters (washed erythrocytes) for studies of receptor-mediated transport (RMT).
The study of peptide vector SEQ ID NO: 11 made it possible to determine its brain transport or transfer coefficient (Kin). The duration of brain perfusion for these experiments is 5 min with a perfusate flow rate of 2 ml/min. Thus, the calculation of the Kin (volume of distribution over time of brain perfusion) of peptide vector SEQ ID NO: 11 gives a value of 3.5±0.2×10^−4 ml/s/g.

[4] = In situ perfusion in mouse, transport across the blood-retinal barrier; format: in vivo
Text: as §1
In addition, the Kin of these various peptides, across the blood-retinal barrier (BRB), were also determined. Kin of SEQ ID NO: 11=1.2±0.2×10^−4 ml/s/g Kin of SEQ ID NO: 48=2.4±0.3×10^−4 ml/s/g Kin of SEQ ID NO: 73=0.0±0.0×10^−4 ml/s/g Kin of SEQ ID NO: 72=11.5±3.3×10^−4 ml/s/g Kin of SEQ ID NO: 74=1.8±0.2×10^−4 ml/s/g

[5] = target: T1, hLDLR; assay: Displacement of SEQ ID NO: 11/S-Tag on CHO-hLDLR-RFP cells (FRET); format: binding; set-up: expressed in transfected cells; details: 10 μM peptide vs 10 μM SEQ ID NO: 11/S-Tag
Method: For the FRET approaches, cells are washed twice with 2 ml PBS and then incubated for 1 h at 37° C. with 250 μl peptide solution. They are again washed twice with 2 ml PBS and then twice with 1 ml PBS, and then scraped in 1 ml PBS and centrifuged for 5 min at 1,250 rpm. The supernatant is then aspirated and the cell pellet is lysed in 80 μl PBS+0.1% Triton X100. Twenty μl of each cell lysate are analysed by measuring fluorescence emission after the FRET reaction.
A study of the structure/activity (affinity) relationships was carried out on peptide vector SEQ ID NO: 11 via the alanine scanning (Ala-scan) technique and by N- and C-term truncation in order to determine the importance of each of the 15 constitutive amino acids of this peptide. […] Briefly, the CHO-hLDLR-RFP cells used are adherent and at confluence.
They are grown in six-well plates. Three wells of cells are used per condition.
A solution containing 10 μM peptide SEQ ID NO: 11/S-Tag is prepared in HamF12-1% BSA culture medium. To this solution is added 10 μM peptide resulting from the Ala-scan to be evaluated (competition). […]

[6] = system: bovine brain microvascular endothelial cells (BBMEC); assay: Binding and/or internalisation in endothelial cells of in vitro BBB model; format: cell-based; details: rhodamine fluorescence after cell lysis, 2 h, 5 h, 24 h
Method: The medium is changed twice per week. […] This BBMEC medium is changed three times per week.
This analysis was carried out by lysis of endothelial cells at various times (2 h, 5 h, 24 h), and by fluorimetric measurements of the quantity of fluorescence (rhodamine) associated with the cells (membrane and cytoplasmic compartments obtained by centrifugation of these cells after lysis).

[7] = target: T1, hLDLR; assay: Binding and endocytosis of tracer-conjugated synthesised peptides in CHO-hLDLR-GFP cells (fluorescence, immunocytochemistry); format: cell-based; set-up: expressed in transfected cells; details: CHO-LDLR-GFP cells, tracer-conjugated peptide, vs control peptides
Text: GFP fluorescence is visible in green (A1, B1 and C1); that related to peptides, visualised by rhodamine or by binding of an anti-S-Tag antibody coupled to Alexa594 is visible in red (A2, B2 and C2); and the superimposing of red and green stains is visible in yellow/orange (A3, B3 and C3). […] S-Tag (a 15 amino acid peptide derived from sequence 1-15 of bovine pancreatic ribonuclease A) on the one hand can be recognised by an anti-S-Tag antibody for immunocytochemistry or FACS approaches, and on the other hand can reconstitute enzymatic activity by binding with ribonuclease S-protein (C-term portion, amino acids 21-124) in tests of activity in vitro using the FRETWorks S-Tag assay kit (Novagen 70724-3). The ribonuclease thus activated digests an RNA substrate releasing a masked fluorescent agent visualised by FRET (fluorescence resonance energy transfer) and quantified in a 96-well plate in a Beckmann spectrofluorimeter. For these FRET experiments, control CHO cells and GFP fused in the C-term position with hLDLR and mLDLR, which generates strong background noise at the wavelengths used for FRET, was replaced by red fluorescent protein (RFP). The stable cell lines generated for the FRET experiments are thus CHO-RFP and CHO-hLDLR-RFP. Experiments involving the incubation of peptides on various cells expressing hLDLR were performed.

[8] = system: bovine brain microvascular endothelial cells (BBMEC); assay: Passage (Pe) across in vitro BBB model
Method: The potential toxic effects of peptides on endothelial cells, the binding/accumulation of peptides in these cells, and the passage by transcytosis of peptides were evaluated on in vitro BBB models. The cells necessary to set up the model (co-culture of endothelial cells from brain microvessels and astrocytes) are bovine cells (bovine brain microvascular endothelial cells, BBMEC) sold by Cellial Technologies (Lens, France).
The in vitro BBB model brings into play a co-culture of BBMECs and astrocytes. […]
The culture medium of the lower chamber is collected at various times and fluorescence quantified by fluorimetric analysis. The results are expressed as endothelial surface permeability (Pe) in units of 10^−3 cm/min. […] Transendothelial electrical resistance (TEER), measured with an ohmmeter and expressed in ohm·cm^2, also makes it possible to measure BBB integrity in vitro during tests of passage across the BBB. […]
This analysis is carried out by measuring by fluorimetry the quantity of fluorescence accumulated in the receiver wells at various times (1 h, 4 h, 24 h). The integrity of the BBB in the various wells analysed was evaluated by simultaneous measurement of the level of LY that passes from one compartment to the other as a function of time.

[9] = mouse in situ brain perfusion, BBB, 5 min, perfusate flow rate 2 ml/min, tritiated peptide

Question: For TPSAHAMALQSLSVG [SEQ ID NO: 21], which “shift of the signal in Q2 (FACS)” value ([1]; peptide expressed by bacterial virus clone, vs control bacterial viruses) is on record?
Answer: Its value is “significant shift”.

Question: What about the “percentage of shift of the fluorescence signal in zone Q2” value ([1]; peptide expressed by bacterial viruses, without LDL) of the same substance?
Answer: Its value is “more than 55.8%”.

Question: What about the “effect of LDL on binding of peptides expressed by bacterial viruses” value ([2]; FACS, LDL added) of the same substance?
Answer: The value was “strongly decreases the binding”.

Question: What about the “loss/shift of signal in Q2 on adding LDL” value ([2]; peptide expressed by bacterial viruses, in the presence of LDL) of the same substance?
Answer: The value was 85%.

Question: For “CMPRC [SEQ ID NO: 73, control peptide for the brain perfusion study, reference compound]”, which “Kin (brain transport or transfer coefficient)” value ([3]; mouse, in vivo) is on record?
Answer: The value was 1.5±0.2 ×10^−4 ml/s/g.

Question: And the “Kin across the blood-retinal barrier (BRB)” value ([4]; mouse, in vivo)?
Answer: Its value is 0.0±0.0 ×10^−4 ml/s/g.

Question: Which “Kin (brain transport or transfer coefficient)” value [3, 9] does the source give for “Y-(D)-AGFLR (Y[dA]GFLR) [SEQ ID NO: 74, analgesic therapeutic peptide, dalargin, reference compound]” here?
Answer: The value was 0.9±0.1 ×10^−4 ml/s/g.

Question: And the “Kin across the blood-retinal barrier (BRB)” value ([4]; mouse in situ perfusion, BRB)?
Answer: The value was 1.8±0.2 ×10^−4 ml/s/g.

Question: What does the source list for “Y-(D)-AGFLRGFAL-(D)-CMPRLRGC (Y[dA]GFLRGFAL[dC]MPRLRGC; cysteine pairing not given here) [SEQ ID NO: 72]”?
Answer: Kin (brain transport or transfer coefficient) [3, 9]: 19.6±3.9 ×10^−4 ml/s/g; passage in the brain, factor vs non-vectorised free dalargin (SEQ ID NO: 74) ([3]; ratio of Kin, BBB): 21.78; Kin across the blood-retinal barrier (BRB) ([4]; mouse in situ perfusion, BRB): 11.5±3.3 ×10^−4 ml/s/g; BRB crossing, factor vs non-vectorised free dalargin (SEQ ID NO: 74) ([4]; ratio of Kin, BRB): 6.39

Question: With (D)-CMPRLRGC [SEQ ID NO: 48] as the substance, how does the “in vitro affinity for LDLR (displacement of SEQ ID NO: 11/S-Tag)” value [5] read?
Answer: Its value is “excellent affinity”.

Question: What about the “Kin (brain transport or transfer coefficient)” value ([3]; mouse, in vivo) of the same substance?
Answer: The value was 4.8±0.4 ×10^−4 ml/s/g.

Question: What about the “improvement of passage in the brain, factor vs SEQ ID NO: 11” value ([3]; mouse, in vivo) of the same substance?
Answer: Its value is 1.37.

Question: And the “Kin across the blood-retinal barrier (BRB)” value ([4]; mouse, in vivo)?
Answer: Its value is 2.4±0.3 ×10^−4 ml/s/g.

Question: With “SEQ ID NO: 1 conjugated with rhodamine: peptide SEQ ID NO: 1 conjugated in the C-term position with rhodamine via a spacer of three Gly residues (HLDCMPRGCFRNGGG-Rhodamine; cysteine pairing not given here; reading uncertain)” as the substance, how does the “binding and/or internalisation rate in endothelial cells” value [6] read?
Answer: Its value is “more affinity for endothelial cells in an in vitro BBB model than the control peptide”.

Question: What about the “binding to cells expressing hLDLR” value [7] of the same substance?
Answer: Its value is “bind well to CHO-LDLR-GFP cells”.

Question: And the “endocytosis / intracellular accumulation” value [7]?
Answer: The value was “incorporated by endocytosis”.

Question: And the “endocytosis / intracellular accumulation” value ([7]; listed as SEQ ID NO: 1/rhodamine)?
Answer: The value was “high levels of intracellular staining”.

Question: And the “rate of passage (Pe) across in vitro BBB” value ([8]; 1 h and 4 h)?
Answer: Its value is “cannot be distinguished from nonspecific or paracellular passage”.

Question: And the “rate of passage (Pe) across in vitro BBB” value ([8]; 24 h)?
Answer: Its value is “quite significantly higher than that of the control peptide”.
